The values below come from the supplement of paper PMC12042874.

The nature of the series: amyloid nucleation score (Sup35N fusion, yeast selection) (log enrichment); library NNK1; higher = more nucleation; inactive = no reads after selection. The procedure, abridged:
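Sup35N was fused to peptides of 20 random codons and expressed in psi-negative yeast, which were induced with 100 μM copper sulfate for 24 hours and then grown on medium lacking adenine and uracil for 7 days at 30°C. Plasmid inserts from input and output were sequenced on Illumina. The nucleation score is the DiMSum log enrichment of output over input reads, centred on the mode score of non-aggregating sequences. Sequences with under 100 input reads were left out, and random libraries had three technical output replicates.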

± gives the uncertainty stated by the source.

Substance AKDFIGQSC showed an amyloid nucleation score of 0.688 ± 0.45. With VLRLHAMRQQGICWSCVTGM, the amyloid nucleation score came out at 0.185 ± 0.39. The substance MWLQHYWTHQAY displayed an amyloid nucleation score of 0.59 ± 0.88. For the substance PFQECFLRKVYWIIWRSRPK, the amyloid nucleation score is 0.255 ± 1.2. In turn, TMLMNEWGMLLNKWEWA had an amyloid nucleation score of -0.398 ± 1.1. Consider RLLCCFCTWTLQMFCYSGCC, for which the amyloid nucleation score came to 5.981 ± 0.053. For YNFRTVNFHIGTPSICFGHD, the amyloid nucleation score result is “inactive”. The result for FVVLSRFACRLRLTR reads 0.853 ± 0.55; that for SNSRFMLHGWAGIWFIWSWG, 0.124 ± 0.5.

As for RCLQKPMRLRSQKIKQCVLR, the amyloid nucleation score was -0.341 ± 1.4. In the case of RQAFIRGGLEAAKGAYHVLG, the amyloid nucleation score is -1.38 ± 2.4. Turning to IMDSSMGGSSKMYKVVANDL, the amyloid nucleation score was found to be 0.311 ± 0.64. For the substance GCFASTSNTRC, the amyloid nucleation score amounted to 1.05 ± 0.66.

As to DNWSMDVLFLWMASLGNKYR, the amyloid nucleation score entry was “inactive”. On to ANMCISGAYNCVSVLCLRNR, for which the amyloid nucleation score was determined as 6.59 ± 0.047. Take TYWGC: the amyloid nucleation score came out at 0.186 ± 1.

VNWRGNSRVGIRNRFFCHSH: the amyloid nucleation score is -0.28 ± 0.72.

As for QHHMVEIWPSDECVEWLVSS, the amyloid nucleation score is -0.034 ± 0.22.

With WIEEIVCIGS, the amyloid nucleation score was 1.03 ± 0.68.

For LRTCIVGKLNQTTEILCGSS, the amyloid nucleation score came to 1.14 ± 0.73. As to RSTSF, the amyloid nucleation score result is “inactive”. With YSGPGAGFGGLLCIGNAQNL, the amyloid nucleation score is -0.108 ± 0.62.

For LHRALGQSSWWARQW, the amyloid nucleation score was -0.13 ± 1. The value for SHEFLSSVYQSVLIVSNF was -0.508 ± 0.58; that for RFRFNWLNSQNLQRFVGTFK was 0.433 ± 0.3; that for GYMSKLEYLPTQLYLLSLRE was 0.85 ± 0.44. As to FSQVSEEIIGVFLSISYCIL, the amyloid nucleation score turned out to be 2.93 ± 0.074. Regarding RHSLIFDRTGRGYGARVPVE, the amyloid nucleation score result is “inactive”. Take MKLNGFVWPG: the amyloid nucleation score is -0.256 ± 0.55. As for NLLLYVYKKLCFGFVKECII, the amyloid nucleation score is -0.953 ± 0.57. With YKGVGPIVIFIQWVYITVNN, the amyloid nucleation score is 4.1 ± 0.11. The result for HSYCLLLWYG reads -1.74 ± 1.9; that for LFVVFHALTIFYP, -0.437 ± 1.2; that for TSPSRIMS, 1.12 ± 0.35. As for QGGTVCLEF, the amyloid nucleation score is -0.578 ± 0.34.

Substance WSWRRVVAWLH gave an amyloid nucleation score of 0.727 ± 0.34. The substance SVILIGRRDDHASSIRVIGS returned an amyloid nucleation score of -0.752 ± 0.69. SHLTRDSILRVRVCWTNCVQ: the amyloid nucleation score was -0.026 ± 0.59.

Turning to RMFVGWHSLERIL, the amyloid nucleation score was 1.21 ± 0.43. LCDDHRPELCVYIVWTVVGE returned an amyloid nucleation score of 3.19 ± 0.22. Turning to SPKSLLKRLWEYARKNTVML, the amyloid nucleation score stood at 0.151 ± 0.49. Take EVLKVSHSF: the amyloid nucleation score is -0.009 ± 0.46. Substance ILMILNLRTTSPWDWNWVSV registered an amyloid nucleation score of 0.296 ± 0.83.

Regarding NVYWNRWAMTFWLSGDEMWF, the amyloid nucleation score was 1.27 ± 0.42. In the case of VYASLTL, the amyloid nucleation score is -1.26 ± 1.7. CLLTNTKFWYISMSHDLGCL registered an amyloid nucleation score of 0.559 ± 0.34. With EVCFCEGEVKFWGKGAIFSR, the amyloid nucleation score is -1.88 ± 1.8. As for MVGRNWKTGSIVTLVMFRLE, the amyloid nucleation score was found to be 0.041 ± 1.1.

Consider SESLWDRGTVPKRPCAASLQ, for which the amyloid nucleation score entry is “inactive”.

As to DLYGRLLNWNTPYKRRWKNR, the amyloid nucleation score is -0.491 ± 0.46.

In turn, SPPDVSNN yielded an amyloid nucleation score of -0.169 ± 0.75. HVLTQRRRMSFTVTRYHKRI: the amyloid nucleation score was 1.1 ± 0.52.

LLSRFRNCNKFDVRQSLRQN displayed an amyloid nucleation score of 5.328 ± 0.051.

For the substance MSAGIVFIKQFVCS, the amyloid nucleation score is 3.25 ± 0.12. WEKNFKIGESRCSV gave an amyloid nucleation score of -0.554 ± 1.1. As for SIPIVL, the amyloid nucleation score is 0.267 ± 0.35. The value for AWVRLYWAGR was 0.216 ± 0.68; that for MWDGGKVNVFTFRAKRPCVG was -0.215 ± 1.7.

On to RSSWKVLKRFRVVRERHEIT, for which the amyloid nucleation score came out at 0.257 ± 1.1. For DRVLAVVYAAFAGFRRCMRR, the amyloid nucleation score result is “inactive”. The result for DDWAGLKFSYLWSVCCKWWD reads 2.52 ± 0.15; that for TFLIFDLN, 4.56 ± 0.062; that for SFNNFEFILVIDYKRKSYMR, -0.222 ± 0.36.

As for SHQVVGGLLTYSVWCKCLGC, the amyloid nucleation score turned out to be 3.92 ± 0.059. Regarding CYKPPLWMMYLLLRRDVYRD, the amyloid nucleation score result is “inactive”. CLFDHKFMRIALHL: the amyloid nucleation score result is “inactive”. The result for VSQSETCPGV reads 0.433 ± 0.53; that for PALDAYSQKFELTCCLDTLH, “inactive”; that for AVWSRRTCWGLRKQSGVVLT, 0.036 ± 0.32. LFIFFKV showed an amyloid nucleation score of 0.049 ± 0.51. TNYWPVIFG gave an amyloid nucleation score of 0.116 ± 0.36. The substance FLGTI showed an amyloid nucleation score of -1.08 ± 2.7. RDTNVWFHT: the amyloid nucleation score was -0.267 ± 1.1. Take TCRIVVGSSCFRSTVFSFLY: the amyloid nucleation score turned out to be 1.45 ± 0.68. The value for QIQIT was 0.152 ± 1; that for RMRATLDLSFWFGKEQYARV was 0.389 ± 0.45; that for FWNMWAYEMRFVLRNYAL was -0.908 ± 0.43. As for HVFCQRGCCERRLKIYISVS, the amyloid nucleation score was -1.45 ± 0.57. Consider FRSVSGNMYTLLFRIE, for which the amyloid nucleation score came to 1.62 ± 0.24. Take EQRVNLISVWIRGDLETPHG: the amyloid nucleation score stood at 0.47 ± 0.73. With CCRARDLIYLNITHAFFSIL, the amyloid nucleation score was -0.289 ± 0.47. In the case of CTSVRVLGSNQCSYGVSKCR, the amyloid nucleation score was -0.39 ± 0.39. For the substance SWHLDWFTYPFNKSD, the amyloid nucleation score entry is “inactive”. As to VGSPGCMGLVTLNHVP, the amyloid nucleation score came to 0.522 ± 0.24.

Turning to RDTHRDNRNLPSHLSSVYRK, the amyloid nucleation score was -1.35 ± 2.4. The value for MFFGWGT was 1.19 ± 0.34; that for CWDKRLNSY was 0.688 ± 0.61; that for LMEIFLNLPPANKNSYNRR was -0.766 ± 2.4. The result for SHLGVMLNIRYNKSPQTTAP reads 2.1 ± 0.41. RDYYIVNSGLKLEYHLLI had an amyloid nucleation score of 3.77 ± 0.051. VRSNRMTAGTGYWGNSTVKD displayed an amyloid nucleation score of -0.65 ± 0.56. With CYDGDRFIEEA, the amyloid nucleation score is 0.364 ± 0.66.

With SRRKQIVGKVSVFFEASRFV, the amyloid nucleation score was -1.06 ± 1.2. VIGCAGSDLNLRSILCFILC displayed an amyloid nucleation score of -0.364 ± 0.28. Substance GGRLTRQRIVSVLLYVGVAG displayed an amyloid nucleation score of 0.077 ± 0.69. Regarding CTMSTSMPHRAVRRELSSIE, the amyloid nucleation score turned out to be 0.052 ± 0.3. For the substance CPASKFDQGP, the amyloid nucleation score is -0.038 ± 0.81. As for SRCRNYYKVHVL, the amyloid nucleation score is -1.17 ± 1.7. With GYLSHII, the amyloid nucleation score is -0.112 ± 0.51. The value for EHGERAQGPISGMLGRKCIE was 1.04 ± 0.98; that for MDPTEEE was -0.573 ± 1.4; that for KVLSYWDVSWGMASRFVSCY was 0.724 ± 0.49. The result for LVDCMALLNRYTSRIMDNC reads -1.07 ± 0.8; that for ILGTIYDIMQNGDIHRFLAY, -0.834 ± 1.2. As to TRLGYISRDKGYSPCR, the amyloid nucleation score is -0.146 ± 0.39. Regarding VLRHS, the amyloid nucleation score is -0.779 ± 1. In the case of RAMDYFALEIQLVPRRLVQL, the amyloid nucleation score was found to be 0.18 ± 0.41. Consider RRPNETS, for which the amyloid nucleation score was -1.08 ± 2.4. The substance SMIGCYMTF yielded an amyloid nucleation score of 0.073 ± 0.36.

Consider LLSPLTRLYFRKFFSVGKAW, for which the amyloid nucleation score is 0.353 ± 1.2. The substance GRTFVHSLWACNNSYCSL had an amyloid nucleation score of 6.85 ± 0.088.

In the case of CFMVHNTVVRVGKE, the amyloid nucleation score came to 0.177 ± 0.7. Substance WFFHLTNLSFCCNPLVVPRV returned an amyloid nucleation score of -0.004 ± 0.78. IRYQFVWSMSLCGLEMHWSS returned an amyloid nucleation score of 2.55 ± 0.21. YRRVKM yielded an amyloid nucleation score of -0.089 ± 0.53.

In the case of NNNESEWMRGFSLKEGPTQE, the amyloid nucleation score was 0.111 ± 0.84. The value for KKLVA was 0.286 ± 0.43; that for CWRFRPFRPASIKFTQYNNH was 4.49 ± 0.072; that for FTNRTIFFV was -0.023 ± 0.91. Take CNWVIRNPYVGPIRSNVHGS: the amyloid nucleation score was 0.124 ± 0.58. In the case of GYAFVY, the amyloid nucleation score was -0.037 ± 0.52. In the case of GSADSFRGYGCFILVKATWY, the amyloid nucleation score turned out to be 0.717 ± 0.46. The result for KACDRFNLTYKTVSVRMGDC reads 0.39 ± 0.28; that for TERFMYFKNLFVSSWTSHG, 1.51 ± 0.14; that for TLSVFREWSCLGMLLGYHNL, “inactive”.

LAWTSRDWRKFEYIMGIWGI displayed an amyloid nucleation score of -1.01 ± 2.4. In turn, LESRFRKMFPRVVRDTWGRG displayed an amyloid nucleation score of -0.628 ± 1.7. Substance CFSGPPMTESVYNPTSGNEH came in with an amyloid nucleation score of 0.152 ± 0.72.

Consider HIPYVYGPIIRGEATYTEGV, for which the amyloid nucleation score is -0.29 ± 1.2.

Regarding SILETLGLAFVK, the amyloid nucleation score was -0.41 ± 0.57. The result for ISRGYHRYLFSKSNECGRLN reads “inactive”; that for MSNKTDEDESIYNRVGVIMG, 0.004 ± 0.33; that for TDCGSTMNGGCINMCVCGHR, 7.422 ± 0.069.

Substance SIVGWCICLREFSVRFSYAE gave an amyloid nucleation score of 5.48 ± 0.075. NYREGVVIILNNPDYCRRER displayed an amyloid nucleation score of 6.36 ± 0.091. Take EMGSSLYTRHGNVRSLAFGW: the amyloid nucleation score came out at 0.242 ± 0.48.

Substance LYAALIIDYA displayed an amyloid nucleation score of 0.681 ± 0.66. The result for ERAKRSY reads 3.04 ± 0.069; that for SWDSLGHYNGAIE, -0.268 ± 0.54. Turning to INTSYIEEHYELVGFVHWNV, the amyloid nucleation score was -0.449 ± 0.79. The result for LILRVSFN reads 2.28 ± 0.16.
